The values below come from article doi:10.1101/2023.06.22.546118 (bioRxiv, 2023).

As usually defined, the stoichiometry N is a count of units in the complex or per binding partner.

Data set [1] addresses T1, HSV-1 UL31 full length (1-306) with R229L (SUP_UL31) (herpes simplex virus 1 (HSV-1), UniProt P10215 1-306, R229L).
T1 sequence: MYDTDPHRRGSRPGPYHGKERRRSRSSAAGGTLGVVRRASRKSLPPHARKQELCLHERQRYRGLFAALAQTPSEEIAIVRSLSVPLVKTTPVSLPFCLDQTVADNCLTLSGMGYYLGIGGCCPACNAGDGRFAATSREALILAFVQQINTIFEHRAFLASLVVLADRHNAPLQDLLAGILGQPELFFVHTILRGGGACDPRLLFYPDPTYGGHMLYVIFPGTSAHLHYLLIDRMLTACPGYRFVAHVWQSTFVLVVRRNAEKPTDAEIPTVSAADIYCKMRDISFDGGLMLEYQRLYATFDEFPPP
Description: cryo-EM structure.

Data set [2] deals with the molecule itself. The experiment in a line: cryo-EM structure.
Data set [3] concerns the target T1, HSV-1 UL31 full length (1-306) with …. The experiment in a line: SEC. (In gel filtration, larger molecules generally elute earlier.)
In data set [4] the target is T2, HSV-1 UL31 full length (1-306), wild type (herpes simplex virus 1 (HSV-1), UniProt P10215 1-306).
T2 sequence: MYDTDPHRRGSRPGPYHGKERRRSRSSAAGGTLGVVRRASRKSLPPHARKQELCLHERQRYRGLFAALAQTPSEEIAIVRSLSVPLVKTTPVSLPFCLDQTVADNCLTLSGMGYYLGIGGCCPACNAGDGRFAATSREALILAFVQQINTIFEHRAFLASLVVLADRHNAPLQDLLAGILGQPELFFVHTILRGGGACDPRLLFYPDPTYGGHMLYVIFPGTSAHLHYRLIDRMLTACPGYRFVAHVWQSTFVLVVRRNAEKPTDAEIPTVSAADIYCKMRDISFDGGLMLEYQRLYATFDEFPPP
The experiment in a line: SEC.

The target of data set [5] is T2, HSV-1 UL31 full length (1-306), wild …. The experiment in a line: cryo-EM structure.
Data set [6] deals with the molecule itself. Description: crystal structure.

B1: HSV-1 UL34 residues 1-220 with D35A/E37A (DN_UL34) (domain or fragment)
chain: MAGLGKPYTGHPGDAFEGLVQRIRLIVPSTLRGGAGAAGPYSPSSLPSRCAFQFHGHDGSDESFPIEYVLRLMNDWAEVPCNPYLRIQNTGVSVLFQGFFHRPHNAPGGAITPERTNVILGSTETTGLSLGDLDTIKGRLGLDARPMMASMWISCFVRMPRVQLAFRFMGPEDAGRTRRILCRAAEQAITRRRRTRRSREAYGAEAGLGVAGTGFRARGD
With B1, the binding result in data set [1] is on record as “binds”.

B2: NEC220, wild-type soluble HSV-1 nuclear egress complex (UL31 1-306 with UL34 1-220) (complex)
chain 1: MYDTDPHRRGSRPGPYHGKERRRSRSSAAGGTLGVVRRASRKSLPPHARKQELCLHERQRYRGLFAALAQTPSEEIAIVRSLSVPLVKTTPVSLPFCLDQTVADNCLTLSGMGYYLGIGGCCPACNAGDGRFAATSREALILAFVQQINTIFEHRAFLASLVVLADRHNAPLQDLLAGILGQPELFFVHTILRGGGACDPRLLFYPDPTYGGHMLYVIFPGTSAHLHYRLIDRMLTACPGYRFVAHVWQSTFVLVVRRNAEKPTDAEIPTVSAADIYCKMRDISFDGGLMLEYQRLYATFDEFPPP
chain 2: MAGLGKPYTGHPGDAFEGLVQRIRLIVPSTLRGGDGEAGPYSPSSLPSRCAFQFHGHDGSDESFPIEYVLRLMNDWAEVPCNPYLRIQNTGVSVLFQGFFHRPHNAPGGAITPERTNVILGSTETTGLSLGDLDTIKGRLGLDARPMMASMWISCFVRMPRVQLAFRFMGPEDAGRTRRILCRAAEQAITRRRRTRRSREAYGAEAGLGVAGTGFRARGD
Regarding B2, the binding result in data set [2] is reported as “binds”.

B3: NEC220-SUP_(UL31) (UL31 1-306 R229L with UL34 1-220) (complex)
chain 1: MYDTDPHRRGSRPGPYHGKERRRSRSSAAGGTLGVVRRASRKSLPPHARKQELCLHERQRYRGLFAALAQTPSEEIAIVRSLSVPLVKTTPVSLPFCLDQTVADNCLTLSGMGYYLGIGGCCPACNAGDGRFAATSREALILAFVQQINTIFEHRAFLASLVVLADRHNAPLQDLLAGILGQPELFFVHTILRGGGACDPRLLFYPDPTYGGHMLYVIFPGTSAHLHYLLIDRMLTACPGYRFVAHVWQSTFVLVVRRNAEKPTDAEIPTVSAADIYCKMRDISFDGGLMLEYQRLYATFDEFPPP
chain 2: MAGLGKPYTGHPGDAFEGLVQRIRLIVPSTLRGGDGEAGPYSPSSLPSRCAFQFHGHDGSDESFPIEYVLRLMNDWAEVPCNPYLRIQNTGVSVLFQGFFHRPHNAPGGAITPERTNVILGSTETTGLSLGDLDTIKGRLGLDARPMMASMWISCFVRMPRVQLAFRFMGPEDAGRTRRILCRAAEQAITRRRRTRRSREAYGAEAGLGVAGTGFRARGD
Turning to B3, in data set [2], the binding result was “binds”.

B4: NEC220-DN_(UL34)/SUP_(UL31) (UL31 1-306 R229L with UL34 1-220 D35A/E37A) (complex)
chain 1: MYDTDPHRRGSRPGPYHGKERRRSRSSAAGGTLGVVRRASRKSLPPHARKQELCLHERQRYRGLFAALAQTPSEEIAIVRSLSVPLVKTTPVSLPFCLDQTVADNCLTLSGMGYYLGIGGCCPACNAGDGRFAATSREALILAFVQQINTIFEHRAFLASLVVLADRHNAPLQDLLAGILGQPELFFVHTILRGGGACDPRLLFYPDPTYGGHMLYVIFPGTSAHLHYLLIDRMLTACPGYRFVAHVWQSTFVLVVRRNAEKPTDAEIPTVSAADIYCKMRDISFDGGLMLEYQRLYATFDEFPPP
chain 2: MAGLGKPYTGHPGDAFEGLVQRIRLIVPSTLRGGAGAAGPYSPSSLPSRCAFQFHGHDGSDESFPIEYVLRLMNDWAEVPCNPYLRIQNTGVSVLFQGFFHRPHNAPGGAITPERTNVILGSTETTGLSLGDLDTIKGRLGLDARPMMASMWISCFVRMPRVQLAFRFMGPEDAGRTRRILCRAAEQAITRRRRTRRSREAYGAEAGLGVAGTGFRARGD
On to B4, for which the binding result in data set [2] is reported as “binds”.

B5: HSV-1 UL34 residues 1-220 with K137A/R139A (domain or fragment)
chain: MAGLGKPYTGHPGDAFEGLVQRIRLIVPSTLRGGDGEAGPYSPSSLPSRCAFQFHGHDGSDESFPIEYVLRLMNDWAEVPCNPYLRIQNTGVSVLFQGFFHRPHNAPGGAITPERTNVILGSTETTGLSLGDLDTIAGALGLDARPMMASMWISCFVRMPRVQLAFRFMGPEDAGRTRRILCRAAEQAITRRRRTRRSREAYGAEAGLGVAGTGFRARGD
On to B5, for which the binding result in data set [3] and in data set [4] was “binds” throughout.

B6: HSV-1 UL34 residues 1-220 with R139A (domain or fragment)
chain: MAGLGKPYTGHPGDAFEGLVQRIRLIVPSTLRGGDGEAGPYSPSSLPSRCAFQFHGHDGSDESFPIEYVLRLMNDWAEVPCNPYLRIQNTGVSVLFQGFFHRPHNAPGGAITPERTNVILGSTETTGLSLGDLDTIKGALGLDARPMMASMWISCFVRMPRVQLAFRFMGPEDAGRTRRILCRAAEQAITRRRRTRRSREAYGAEAGLGVAGTGFRARGD
Regarding B6, the binding result in data set [4] is given as “binds”.

B7: HSV-1 UL34 residues 1-220 with K137A (domain or fragment)
chain: MAGLGKPYTGHPGDAFEGLVQRIRLIVPSTLRGGDGEAGPYSPSSLPSRCAFQFHGHDGSDESFPIEYVLRLMNDWAEVPCNPYLRIQNTGVSVLFQGFFHRPHNAPGGAITPERTNVILGSTETTGLSLGDLDTIAGRLGLDARPMMASMWISCFVRMPRVQLAFRFMGPEDAGRTRRILCRAAEQAITRRRRTRRSREAYGAEAGLGVAGTGFRARGD
On to B7, for which the binding result in data set [3] and in data set [4] was “binds” in each case.

B8: HSV-1 UL34 residues 1-220, wild type (domain or fragment)
chain: MAGLGKPYTGHPGDAFEGLVQRIRLIVPSTLRGGDGEAGPYSPSSLPSRCAFQFHGHDGSDESFPIEYVLRLMNDWAEVPCNPYLRIQNTGVSVLFQGFFHRPHNAPGGAITPERTNVILGSTETTGLSLGDLDTIKGRLGLDARPMMASMWISCFVRMPRVQLAFRFMGPEDAGRTRRILCRAAEQAITRRRRTRRSREAYGAEAGLGVAGTGFRARGD
As for B8, the binding result in data set [5] is given as “binds”.

B9: NEC185Δ50-SUP_(UL31) heterodimer (UL31 51-306 R229L with UL34 15-185) (complex)
chain 1: QELCLHERQRYRGLFAALAQTPSEEIAIVRSLSVPLVKTTPVSLPFCLDQTVADNCLTLSGMGYYLGIGGCCPACNAGDGRFAATSREALILAFVQQINTIFEHRAFLASLVVLADRHNAPLQDLLAGILGQPELFFVHTILRGGGACDPRLLFYPDPTYGGHMLYVIFPGTSAHLHYLLIDRMLTACPGYRFVAHVWQSTFVLVVRRNAEKPTDAEIPTVSAADIYCKMRDISFDGGLMLEYQRLYATFDEFPPP
chain 2: AFEGLVQRIRLIVPSTLRGGDGEAGPYSPSSLPSRCAFQFHGHDGSDESFPIEYVLRLMNDWAEVPCNPYLRIQNTGVSVLFQGFFHRPHNAPGGAITPERTNVILGSTETTGLSLGDLDTIKGRLGLDARPMMASMWISCFVRMPRVQLAFRFMGPEDAGRTRRILCRAA
For B9, the “stoichiometry N” value in data set [6] came out at 6.

B10: NEC185Δ50-DN_(UL34)/SUP_(UL31) heterodimer (UL31 51-306 R229L with UL34 15-185 D35A/E37A) (complex)
chain 1: QELCLHERQRYRGLFAALAQTPSEEIAIVRSLSVPLVKTTPVSLPFCLDQTVADNCLTLSGMGYYLGIGGCCPACNAGDGRFAATSREALILAFVQQINTIFEHRAFLASLVVLADRHNAPLQDLLAGILGQPELFFVHTILRGGGACDPRLLFYPDPTYGGHMLYVIFPGTSAHLHYLLIDRMLTACPGYRFVAHVWQSTFVLVVRRNAEKPTDAEIPTVSAADIYCKMRDISFDGGLMLEYQRLYATFDEFPPP
chain 2: AFEGLVQRIRLIVPSTLRGGAGAAGPYSPSSLPSRCAFQFHGHDGSDESFPIEYVLRLMNDWAEVPCNPYLRIQNTGVSVLFQGFFHRPHNAPGGAITPERTNVILGSTETTGLSLGDLDTIKGRLGLDARPMMASMWISCFVRMPRVQLAFRFMGPEDAGRTRRILCRAA
As for B10, the binding result in data set [6] is “binds”.

B11: HSV-1 UL31 residues 51-306 with R229L (SUP_UL31), crystallization construct (domain or fragment)
chain: QELCLHERQRYRGLFAALAQTPSEEIAIVRSLSVPLVKTTPVSLPFCLDQTVADNCLTLSGMGYYLGIGGCCPACNAGDGRFAATSREALILAFVQQINTIFEHRAFLASLVVLADRHNAPLQDLLAGILGQPELFFVHTILRGGGACDPRLLFYPDPTYGGHMLYVIFPGTSAHLHYLLIDRMLTACPGYRFVAHVWQSTFVLVVRRNAEKPTDAEIPTVSAADIYCKMRDISFDGGLMLEYQRLYATFDEFPPP
Turning to B11, in data set [6], the binding result was “binds”.
